Ends that are not written are not given here.
B1: dimeric peptide 431 (peptide)
peptide: VHWDFRQWWQPS
modifications: also: dimer: two copies linked via a lysine, imaging agent coupled to the linker

Tests used:
[1] = molecular target: T1, insulin-like growth factor 2 receptor (IGF2R) on human hepatic stellate cells LX-2 (human, UniProt P11717 41-2491); experiment: flow cytometry, 5-FAM labelled peptide titrated on LX-2 cells, 1 h at 37 C; apparent Kd
T1 construct: Endogenous IGF2R on LX-2 cells; also called LX-2 cells; LX 2 cells
Description: (§1) The cells were incubated with 5 FAM labeled peptides at different concentrations for 1 h at 37° C. The labeled cells were detected by flow cytometry, and the apparent Kd value was calculated using GraphPad Prism. […] The result is consistent with the cellular uptake result depicted in FIGS. 7A-7B, 8A-8G, and 9A-9G.

[2] = molecular target: T1, insulin-like growth factor 2 receptor …; experiment: flow cytometry on LX-2 cells; apparent Kd of the dimer against that of the monomer
Description: as §1

[3] = molecular target: T1, insulin-like growth factor 2 receptor …; experiment: flow cytometry, labelled dimeric peptide titrated on LX-2 cells; apparent Kd
Description: as §1

T1 sequence (P11717 41-2491 R1619G limits assumed): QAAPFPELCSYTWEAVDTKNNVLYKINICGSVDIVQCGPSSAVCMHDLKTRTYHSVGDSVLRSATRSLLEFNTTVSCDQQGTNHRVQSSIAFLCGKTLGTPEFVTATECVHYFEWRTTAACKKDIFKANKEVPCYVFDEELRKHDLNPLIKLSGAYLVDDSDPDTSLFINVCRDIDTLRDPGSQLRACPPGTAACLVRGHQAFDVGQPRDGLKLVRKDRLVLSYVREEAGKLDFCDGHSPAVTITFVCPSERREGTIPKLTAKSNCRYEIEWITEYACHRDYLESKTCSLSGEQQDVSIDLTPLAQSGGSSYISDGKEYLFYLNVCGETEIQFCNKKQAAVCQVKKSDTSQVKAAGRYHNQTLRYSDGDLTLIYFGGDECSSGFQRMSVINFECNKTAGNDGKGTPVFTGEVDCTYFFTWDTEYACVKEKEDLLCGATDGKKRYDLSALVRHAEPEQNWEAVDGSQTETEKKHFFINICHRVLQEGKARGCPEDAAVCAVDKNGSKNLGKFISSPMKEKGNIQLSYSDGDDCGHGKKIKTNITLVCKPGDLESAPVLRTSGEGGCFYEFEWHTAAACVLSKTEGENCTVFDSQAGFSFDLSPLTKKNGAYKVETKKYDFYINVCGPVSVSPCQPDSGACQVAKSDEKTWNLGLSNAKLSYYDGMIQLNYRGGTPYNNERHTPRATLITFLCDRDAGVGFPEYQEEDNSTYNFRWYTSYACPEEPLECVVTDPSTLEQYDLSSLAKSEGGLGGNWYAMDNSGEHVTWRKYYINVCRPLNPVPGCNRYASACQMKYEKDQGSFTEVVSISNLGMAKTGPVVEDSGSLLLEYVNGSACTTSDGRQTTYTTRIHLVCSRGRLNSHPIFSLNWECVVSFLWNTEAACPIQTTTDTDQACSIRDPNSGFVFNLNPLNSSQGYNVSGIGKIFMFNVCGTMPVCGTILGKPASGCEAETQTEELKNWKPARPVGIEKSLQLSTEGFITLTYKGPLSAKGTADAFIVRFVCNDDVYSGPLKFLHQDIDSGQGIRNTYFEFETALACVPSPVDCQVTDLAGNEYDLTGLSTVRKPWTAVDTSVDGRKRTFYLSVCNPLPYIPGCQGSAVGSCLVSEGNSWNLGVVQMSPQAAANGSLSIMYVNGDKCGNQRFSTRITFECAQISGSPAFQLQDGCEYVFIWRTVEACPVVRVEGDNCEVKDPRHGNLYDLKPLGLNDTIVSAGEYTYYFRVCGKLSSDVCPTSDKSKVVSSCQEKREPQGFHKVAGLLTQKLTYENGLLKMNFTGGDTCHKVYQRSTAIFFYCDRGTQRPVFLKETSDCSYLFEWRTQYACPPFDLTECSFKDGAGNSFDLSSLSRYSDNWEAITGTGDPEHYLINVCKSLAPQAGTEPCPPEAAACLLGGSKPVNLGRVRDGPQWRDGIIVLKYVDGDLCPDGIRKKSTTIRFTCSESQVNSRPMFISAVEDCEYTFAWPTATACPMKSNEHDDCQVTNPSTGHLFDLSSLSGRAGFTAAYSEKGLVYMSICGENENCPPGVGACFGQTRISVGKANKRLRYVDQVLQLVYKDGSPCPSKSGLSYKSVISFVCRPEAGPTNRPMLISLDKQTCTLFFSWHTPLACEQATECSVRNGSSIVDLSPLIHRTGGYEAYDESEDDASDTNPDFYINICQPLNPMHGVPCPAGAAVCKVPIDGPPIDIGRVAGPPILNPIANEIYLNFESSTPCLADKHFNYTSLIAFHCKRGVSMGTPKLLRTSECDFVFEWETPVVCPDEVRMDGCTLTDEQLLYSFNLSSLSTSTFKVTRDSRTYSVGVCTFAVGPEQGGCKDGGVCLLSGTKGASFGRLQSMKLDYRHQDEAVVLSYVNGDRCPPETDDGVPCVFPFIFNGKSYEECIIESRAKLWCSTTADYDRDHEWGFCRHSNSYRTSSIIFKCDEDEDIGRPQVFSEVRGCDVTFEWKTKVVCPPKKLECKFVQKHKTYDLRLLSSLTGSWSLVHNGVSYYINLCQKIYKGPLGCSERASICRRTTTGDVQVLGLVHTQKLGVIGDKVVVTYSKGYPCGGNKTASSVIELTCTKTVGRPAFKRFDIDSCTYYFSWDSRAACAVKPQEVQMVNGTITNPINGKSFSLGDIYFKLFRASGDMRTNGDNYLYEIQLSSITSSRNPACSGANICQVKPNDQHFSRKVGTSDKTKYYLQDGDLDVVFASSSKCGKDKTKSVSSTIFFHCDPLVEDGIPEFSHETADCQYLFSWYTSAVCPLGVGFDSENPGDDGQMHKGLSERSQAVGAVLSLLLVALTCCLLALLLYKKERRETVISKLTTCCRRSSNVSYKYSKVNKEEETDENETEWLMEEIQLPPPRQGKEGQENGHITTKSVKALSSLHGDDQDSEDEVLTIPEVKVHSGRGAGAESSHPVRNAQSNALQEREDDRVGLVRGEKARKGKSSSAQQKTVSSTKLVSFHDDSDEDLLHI

Binder	Kd [1] [µM]	fold lower apparent Kd against monomeric peptide 431 [2] [fold]	Kd [3] [nM]
VHWDFRQWWQPS (also: 5-FAM label, position not given here) [Peptide-431]	6.19	–	–
B1	–	~9	701

— US20170101442A1 (CURATORS OF THE UNIVERSITY OF MISSOURI, published 2017)
